In patent US20150315260A1 (Sanofi, published 2015):
Starred links: 1 amine or outer side, 2 acyl side, 3 side chain; linkers in the order of their positions; H or OH if unused. Non-standard residues stand in square brackets, D forms with d. Groups on a side chain read outwards from the residue. No end group written: not given here. *: point of attachment. γGlu = O=C(O)[C@H](CCC(=O)[*:2])N[*:1]; Stearoyl = CCCCCCCCCCCCCCCCCC(=O)*; Palmitoyl = CCCCCCCCCCCCCCCC(=O)*; Aib = CC(C)(N)C(=O)O

Legend:
Assay in all cases: cell-based or functional assay
[1] = target: human glucagon receptor (human, UniProt P47871 26-477)
[2] = target: T1, human GIP receptor (human, UniProt P48546 22-466)
T1 sequence (looked up): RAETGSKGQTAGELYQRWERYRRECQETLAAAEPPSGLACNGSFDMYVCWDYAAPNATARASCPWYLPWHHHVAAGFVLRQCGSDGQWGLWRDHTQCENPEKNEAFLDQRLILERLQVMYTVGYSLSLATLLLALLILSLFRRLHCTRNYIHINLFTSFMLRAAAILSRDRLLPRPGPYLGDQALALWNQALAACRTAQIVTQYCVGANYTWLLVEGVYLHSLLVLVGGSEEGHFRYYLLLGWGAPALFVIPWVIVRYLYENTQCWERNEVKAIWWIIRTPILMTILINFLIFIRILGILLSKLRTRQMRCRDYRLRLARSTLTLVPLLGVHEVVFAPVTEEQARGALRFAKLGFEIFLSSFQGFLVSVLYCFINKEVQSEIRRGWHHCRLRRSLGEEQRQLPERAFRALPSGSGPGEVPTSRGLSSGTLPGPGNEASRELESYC

[3] = target: human GLP-1 receptor (human, UniProt P43220 24-463)

Chain of human glucagon receptor (P47871 26-477): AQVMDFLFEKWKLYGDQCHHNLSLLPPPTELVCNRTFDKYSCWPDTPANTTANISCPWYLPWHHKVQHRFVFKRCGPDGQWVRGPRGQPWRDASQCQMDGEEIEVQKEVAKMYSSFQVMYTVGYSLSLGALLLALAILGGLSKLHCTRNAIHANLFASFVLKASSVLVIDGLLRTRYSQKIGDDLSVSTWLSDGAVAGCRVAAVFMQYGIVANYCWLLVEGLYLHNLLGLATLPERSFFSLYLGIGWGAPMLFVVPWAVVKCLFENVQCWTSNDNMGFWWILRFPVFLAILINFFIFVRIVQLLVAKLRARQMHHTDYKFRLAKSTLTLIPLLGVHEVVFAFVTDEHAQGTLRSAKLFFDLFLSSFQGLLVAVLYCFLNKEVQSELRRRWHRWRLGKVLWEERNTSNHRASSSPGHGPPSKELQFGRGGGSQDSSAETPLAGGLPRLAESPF

Row | Binder | EC50 hGlucagon-R (cAMP formation) [1] | EC50 hGIP-R (cAMP formation) [2] | EC50 hGLP-1R (cAMP formation) [3]
1 | H[Aib]QGTFTSDLSKQK([γGlu-γGlu-Palmitoyl])DEQRAKLFIEWL[Aib]KGGPSSGAPPPS-NH2 [exendin-4 derivative SEQ ID NO: 15] | 0.0426 nM | 1.85 nM | 
2 | H[Aib]QGTFTSDLSKQK([γGlu-γGlu-Palmitoyl])DEQRAKLFIEWL[Aib]AGGPSSGAPPPS-NH2 (N-terminus assumed; SMILES CCCCCCCCCCCCCCCC(=O)N[C@@H](CCC(=O)N[C@@H](CCC(=O)NCCCC[C@H](NC(=O)[C@H](CCC(N)=O)NC(=O)[C@H](CCCCN)NC(=O)[C@H](CO)NC(=O)[C@H](CC(C)C)NC(=O)[C@H](CC(=O)O)NC(=O)[C@H](CO)NC(=O)[C@@H](NC(=O)[C@H](Cc1ccccc1)NC(=O)[C@@H](NC(=O)CNC(=O)[C@H](CCC(N)=O)NC(=O)C(C)(C)NC(=O)[C@@H](N)Cc1c[nH]cn1)[C@@H](C)O)[C@@H](C)O)C(=O)N[C@@H](CC(=O)O)C(=O)N[C@@H](CCC(=O)O)C(=O)N[C@@H](CCC(N)=O)C(=O)N[C@@H](CCCNC(=N)N)C(=O)N[C@@H](C)C(=O)N[C@@H](CCCCN)C(=O)N[C@@H](CC(C)C)C(=O)N[C@@H](Cc1ccccc1)C(=O)N[C@H](C(=O)N[C@@H](CCC(=O)O)C(=O)N[C@@H](Cc1c[nH]c2ccccc12)C(=O)N[C@@H](CC(C)C)C(=O)NC(C)(C)C(=O)N[C@@H](C)C(=O)NCC(=O)NCC(=O)N1CCC[C@H]1C(=O)N[C@@H](CO)C(=O)N[C@@H](CO)C(=O)NCC(=O)N[C@@H](C)C(=O)N1CCC[C@H]1C(=O)N1CCC[C@H]1C(=O)N1CCC[C@H]1C(=O)N[C@@H](CO)C(N)=O)[C@@H](C)CC)C(=O)O)C(=O)O) [exendin-4 derivative SEQ ID NO: 8] | 0.0281 nM | 2.14 nM | 0.0023 nM
3 | H[Aib]QGTFTSDLSKQK([γGlu-Palmitoyl])DEQRAKLFIEWL[Aib]AGGPSSGAPPPS-NH2 (N-terminus assumed; SMILES CCCCCCCCCCCCCCCC(=O)N[C@@H](CCC(=O)NCCCC[C@H](NC(=O)[C@H](CCC(N)=O)NC(=O)[C@H](CCCCN)NC(=O)[C@H](CO)NC(=O)[C@H](CC(C)C)NC(=O)[C@H](CC(=O)O)NC(=O)[C@H](CO)NC(=O)[C@@H](NC(=O)[C@H](Cc1ccccc1)NC(=O)[C@@H](NC(=O)CNC(=O)[C@H](CCC(N)=O)NC(=O)C(C)(C)NC(=O)[C@@H](N)Cc1c[nH]cn1)[C@@H](C)O)[C@@H](C)O)C(=O)N[C@@H](CC(=O)O)C(=O)N[C@@H](CCC(=O)O)C(=O)N[C@@H](CCC(N)=O)C(=O)N[C@@H](CCCNC(=N)N)C(=O)N[C@@H](C)C(=O)N[C@@H](CCCCN)C(=O)N[C@@H](CC(C)C)C(=O)N[C@@H](Cc1ccccc1)C(=O)N[C@H](C(=O)N[C@@H](CCC(=O)O)C(=O)N[C@@H](Cc1c[nH]c2ccccc12)C(=O)N[C@@H](CC(C)C)C(=O)NC(C)(C)C(=O)N[C@@H](C)C(=O)NCC(=O)NCC(=O)N1CCC[C@H]1C(=O)N[C@@H](CO)C(=O)N[C@@H](CO)C(=O)NCC(=O)N[C@@H](C)C(=O)N1CCC[C@H]1C(=O)N1CCC[C@H]1C(=O)N1CCC[C@H]1C(=O)N[C@@H](CO)C(N)=O)[C@@H](C)CC)C(=O)O) [exendin-4 derivative SEQ ID NO: 10] | 0.0524 nM | 0.89 nM | 0.0035 nM
4 | H[Aib]QGTFTSDLSKQK([γGlu-γGlu-Palmitoyl])DEQRAKLFIEWL[Aib]S[dA]GPSSGAPPPS-NH2 (N-terminus assumed; SMILES CCCCCCCCCCCCCCCC(=O)N[C@@H](CCC(=O)N[C@@H](CCC(=O)NCCCC[C@H](NC(=O)[C@H](CCC(N)=O)NC(=O)[C@H](CCCCN)NC(=O)[C@H](CO)NC(=O)[C@H](CC(C)C)NC(=O)[C@H](CC(=O)O)NC(=O)[C@H](CO)NC(=O)[C@@H](NC(=O)[C@H](Cc1ccccc1)NC(=O)[C@@H](NC(=O)CNC(=O)[C@H](CCC(N)=O)NC(=O)C(C)(C)NC(=O)[C@@H](N)Cc1c[nH]cn1)[C@@H](C)O)[C@@H](C)O)C(=O)N[C@@H](CC(=O)O)C(=O)N[C@@H](CCC(=O)O)C(=O)N[C@@H](CCC(N)=O)C(=O)N[C@@H](CCCNC(=N)N)C(=O)N[C@@H](C)C(=O)N[C@@H](CCCCN)C(=O)N[C@@H](CC(C)C)C(=O)N[C@@H](Cc1ccccc1)C(=O)N[C@H](C(=O)N[C@@H](CCC(=O)O)C(=O)N[C@@H](Cc1c[nH]c2ccccc12)C(=O)N[C@@H](CC(C)C)C(=O)NC(C)(C)C(=O)N[C@@H](CO)C(=O)N[C@H](C)C(=O)NCC(=O)N1CCC[C@H]1C(=O)N[C@@H](CO)C(=O)N[C@@H](CO)C(=O)NCC(=O)N[C@@H](C)C(=O)N1CCC[C@H]1C(=O)N1CCC[C@H]1C(=O)N1CCC[C@H]1C(=O)N[C@@H](CO)C(N)=O)[C@@H](C)CC)C(=O)O)C(=O)O) [exendin-4 derivative SEQ ID NO: 12] | 0.13 nM | 8.29 nM | 0.0037 nM
5 | H[Aib]QGTFTSDLSKQK([γGlu-Stearoyl])DEQRAKLFIEWL[Aib]AGGPSSGAPPPS-NH2 (N-terminus assumed; SMILES CCCCCCCCCCCCCCCCCC(=O)N[C@@H](CCC(=O)NCCCC[C@H](NC(=O)[C@H](CCC(N)=O)NC(=O)[C@H](CCCCN)NC(=O)[C@H](CO)NC(=O)[C@H](CC(C)C)NC(=O)[C@H](CC(=O)O)NC(=O)[C@H](CO)NC(=O)[C@@H](NC(=O)[C@H](Cc1ccccc1)NC(=O)[C@@H](NC(=O)CNC(=O)[C@H](CCC(N)=O)NC(=O)C(C)(C)NC(=O)[C@@H](N)Cc1c[nH]cn1)[C@@H](C)O)[C@@H](C)O)C(=O)N[C@@H](CC(=O)O)C(=O)N[C@@H](CCC(=O)O)C(=O)N[C@@H](CCC(N)=O)C(=O)N[C@@H](CCCNC(=N)N)C(=O)N[C@@H](C)C(=O)N[C@@H](CCCCN)C(=O)N[C@@H](CC(C)C)C(=O)N[C@@H](Cc1ccccc1)C(=O)N[C@H](C(=O)N[C@@H](CCC(=O)O)C(=O)N[C@@H](Cc1c[nH]c2ccccc12)C(=O)N[C@@H](CC(C)C)C(=O)NC(C)(C)C(=O)N[C@@H](C)C(=O)NCC(=O)NCC(=O)N1CCC[C@H]1C(=O)N[C@@H](CO)C(=O)N[C@@H](CO)C(=O)NCC(=O)N[C@@H](C)C(=O)N1CCC[C@H]1C(=O)N1CCC[C@H]1C(=O)N1CCC[C@H]1C(=O)N[C@@H](CO)C(N)=O)[C@@H](C)CC)C(=O)O) [exendin-4 derivative SEQ ID NO: 9] | 0.0154 nM | 1.16 nM | 0.0064 nM
6 | H[Aib]QGTFTSDLSKQK([γGlu-Palmitoyl])DEQRAKLFIEWL[Aib]A[dA]GPSSGAPPPS-NH2 (N-terminus assumed; SMILES CCCCCCCCCCCCCCCC(=O)N[C@@H](CCC(=O)NCCCC[C@H](NC(=O)[C@H](CCC(N)=O)NC(=O)[C@H](CCCCN)NC(=O)[C@H](CO)NC(=O)[C@H](CC(C)C)NC(=O)[C@H](CC(=O)O)NC(=O)[C@H](CO)NC(=O)[C@@H](NC(=O)[C@H](Cc1ccccc1)NC(=O)[C@@H](NC(=O)CNC(=O)[C@H](CCC(N)=O)NC(=O)C(C)(C)NC(=O)[C@@H](N)Cc1c[nH]cn1)[C@@H](C)O)[C@@H](C)O)C(=O)N[C@@H](CC(=O)O)C(=O)N[C@@H](CCC(=O)O)C(=O)N[C@@H](CCC(N)=O)C(=O)N[C@@H](CCCNC(=N)N)C(=O)N[C@@H](C)C(=O)N[C@@H](CCCCN)C(=O)N[C@@H](CC(C)C)C(=O)N[C@@H](Cc1ccccc1)C(=O)N[C@H](C(=O)N[C@@H](CCC(=O)O)C(=O)N[C@@H](Cc1c[nH]c2ccccc12)C(=O)N[C@@H](CC(C)C)C(=O)NC(C)(C)C(=O)N[C@@H](C)C(=O)N[C@H](C)C(=O)NCC(=O)N1CCC[C@H]1C(=O)N[C@@H](CO)C(=O)N[C@@H](CO)C(=O)NCC(=O)N[C@@H](C)C(=O)N1CCC[C@H]1C(=O)N1CCC[C@H]1C(=O)N1CCC[C@H]1C(=O)N[C@@H](CO)C(N)=O)[C@@H](C)CC)C(=O)O) [exendin-4 derivative SEQ ID NO: 11] | 0.261 nM | 13.4 nM | 0.0103 nM
7 | H[Aib]QGTFTSDLSKQK([γGlu-γGlu-Palmitoyl])DEQRAKLFIEWL[Aib]K[dA]GPSSGAPPPS-NH2 (N-terminus assumed; SMILES CCCCCCCCCCCCCCCC(=O)N[C@@H](CCC(=O)N[C@@H](CCC(=O)NCCCC[C@H](NC(=O)[C@H](CCC(N)=O)NC(=O)[C@H](CCCCN)NC(=O)[C@H](CO)NC(=O)[C@H](CC(C)C)NC(=O)[C@H](CC(=O)O)NC(=O)[C@H](CO)NC(=O)[C@@H](NC(=O)[C@H](Cc1ccccc1)NC(=O)[C@@H](NC(=O)CNC(=O)[C@H](CCC(N)=O)NC(=O)C(C)(C)NC(=O)[C@@H](N)Cc1c[nH]cn1)[C@@H](C)O)[C@@H](C)O)C(=O)N[C@@H](CC(=O)O)C(=O)N[C@@H](CCC(=O)O)C(=O)N[C@@H](CCC(N)=O)C(=O)N[C@@H](CCCNC(=N)N)C(=O)N[C@@H](C)C(=O)N[C@@H](CCCCN)C(=O)N[C@@H](CC(C)C)C(=O)N[C@@H](Cc1ccccc1)C(=O)N[C@H](C(=O)N[C@@H](CCC(=O)O)C(=O)N[C@@H](Cc1c[nH]c2ccccc12)C(=O)N[C@@H](CC(C)C)C(=O)NC(C)(C)C(=O)N[C@@H](CCCCN)C(=O)N[C@H](C)C(=O)NCC(=O)N1CCC[C@H]1C(=O)N[C@@H](CO)C(=O)N[C@@H](CO)C(=O)NCC(=O)N[C@@H](C)C(=O)N1CCC[C@H]1C(=O)N1CCC[C@H]1C(=O)N1CCC[C@H]1C(=O)N[C@@H](CO)C(N)=O)[C@@H](C)CC)C(=O)O)C(=O)O) [exendin-4 derivative SEQ ID NO: 14] | 0.194 nM | 6.53 nM | 0.0041 nM
8 | H[Aib]QGTFTSDLSKQK([γGlu-γGlu-Palmitoyl])DEQRAKLFIEWL[Aib]SGGPSSGAPPPS-NH2 [exendin-4 derivative SEQ ID NO: 13] | 0.0228 nM | 2.39 nM | 
